# According to the nanobody polyreactivity screen of Harvey et al. (2022):
# Test: yeast display, Sf9 membrane polyspecificity reagent, FACS + sequencing; frameworks hold sequencing errors
# Procedure, shortened: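 Nanobodies from a synthetic yeast display library (Saccharomyces cerevisiae BJ5465), induced 36–48 hours with galactose, were stained 1 hour at 4 °C with 10% biotinylated, detergent-solubilized Sf9 membrane reagent, enriched on streptavidin microbeads, then FACS-sorted. Anti-HA (expression) and streptavidin (reagent binding) fluorescence set low and high (top ~1%) gates. Polyreactivity labels come from the gate of origin. Genes were colony-PCR amplified, MiSeq 2 × 250 sequenced and filtered by CDR length.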
row,Sequence,polyreactivity (PSR sort gate)
1,QVQLVESGGGLVQAGCSLRLSCDASGSTFNWNAMGRYRQAPGKERELVAVIRRNGATTNYADSVKGRFTISRDNAKITVYLQMNSLKPEDTAVYYCAVAKWQPRRRKYYYWGQGTQVTVSS,high polyreactivity
2,QVQLVESGGGLVQAGCSLRLSSAASGFTFAYYVMGWYRQAPGKERELVAAISISGGRTYYADSVKGRFTISRDNEKNSVYLQMNRLKPEETAVYYCAADRRTDGHDYWGQGSQVTVSS,high polyreactivity
3,QVQLVESGGGLVQAGCSLRLSWAASGFTFTYYAMGWYRQEPGKERELVAAISDGGASTYYSDSVKGRFTISRDNAKNTVYLQMNSLKPEDTAVYYCAAETYWPWKDDYWGQGTQVTVSS,high polyreactivity
4,QVQLVESGGGLVQAGDSLRLSCAASGLTFSAYVMGWYRQAPGKERELVAATSRRGGTTYYADSVKGRFTISRDNAKITVYLQMNSLKPEDTAVYYCGTDYTSGSSYHVGYCGQGTQVTVSS,high polyreactivity
5,QVQLVESGGGLVQAGDSLRLSCAASGRIFKRNTMGWYRQAPGKERELVAAITRSGGSTYYADSVKGRFTISRDNAMNNVYLQMNSLKPEDTAVYYCNAPQYIGSVPIGDYWGLGTQVTVSS,high polyreactivity
6,QVQLVESGGGLVQAGDSLRLSCAASGSIFAWKTKGWYRQAPGTERELVAAISSGDSTYYADSVKGRFTISRDNAKNPVYLQMNSLKPEDTAVYYCAATYYQDRRRGYWGQGTQVTVSS,high polyreactivity
7,QVQLVESGGGLVQAGGCLRLSCAASGRISSSYAMGWYRLAAGKERELVAAITSRGGSTYYADSVKGRFTISRDNAKNTVYLQMNSLKPEDTAVYYCNAPGYLTYDHSYDYWGQGTQVTVSS,low polyreactivity
8,QVQLVESGGGLVQAGGCLRLSCAASGSTFPIYDMGWYRQAPGKERELVAAITYSGGSTNYADSVKRRFTNSRDNAKTSVYFQMNSLKPDDTAVYYCAARYTAYIQSGMGYWGQGSQVTVSS,high polyreactivity
9,QVQLVESGGGLVQAGGCLRLSCAASGSTFRGNAMGWYRQAPGKERELVAAITYSGGSTDYADSVKGRFTISRDNAKNTVYLQMNSLKPDDTAVYYCAARWYYYPLLYDYWGQGTQVTVSS,low polyreactivity
10,QVQLVESGGGLVQAGGCLRLSCAASGSTLDSNAMGWYREAPGKERELVAGIDWCGGSTYADSVKGRFTISRDNAKNTVELQMTSLKPEDTAVYYCAKVSRYVQPYSRFDYWGQGTQVTVSS,low polyreactivity
11,QVQLVESGGGLVQAGGCLRLSCADSGGTFGPYAMGWYIQAPGKEREFVARITGSGTRTYYADSVKGRFTISGDNAKNNVYLQMNSLNPEDTAVYYCATSHSRGSRGHDYWGQGTQVTVSS,low polyreactivity
12,QVQLVESGGGLVQAGGGLRLSFPASGRTFTVNAMGWSRQSPGKERELVATITYGGGSRYYADSVKGRFTISRDNAKNSVYLQMNSLKPEDTAVYYCAARSDNYHVYYFKRWGKYYSWGQGTQVTVSS,low polyreactivity
13,QVQLVESGGGLVQAGGIHRLSCASTGRTFPAYAMGWYRQAPGKERELVAAITINGGYTYYADSVKGRFTISRDNAKNSVYLQMKSLKPEDTAVYYCAAYYDSPSHGYWGQVTQVTVSS,low polyreactivity
14,QVQLVESGGGLVQAGGIIRLSCDASGSTFVIYAMGWYRQAPGKERELVAVIDYSDDSTYYADSVKGRFTISRDNAKNTGYLQLNSVKPEVTEVYFCAAYVYYAKGSFDYWGQGTQVTVSS,high polyreactivity
15,QVQLVESGGGLVQAGGILRFSCAASGRTFKYYAMGWYRQAPGKERELVAAISYNGGSTFYADSVKGRFTISRDNAKNTVYLQLNSLKPEDTAVYYCAAGPRGTGKYYWGQGTQVTVSS,high polyreactivity
16,QVQLVESGGGLVQAGGILRLICAASGSIFYYNAMGWSRQAPGKERELVAAITKSGTRTNYADSVKGRFTISRDNAKNTVYLQMNSLKPEDTAVYDCAAEDQYYRYVCAYEYWGQGTQVTVSS,high polyreactivity
17,QVQLVESGGGLVQAGGILRLSCAASARIFTYKAMGWYRQAPGKERELVAAITNGGSTYYADSVKGRFTISRDNAKNTVYLQMNSMKPEDTAVYYCNRVVYRPRYRYGYWGQGTQVTVSS,high polyreactivity
18,QVQLVESGGGLVQAGGILRLSCAASGFIFAYYAMGWYRQAPGKEREFVAVITSSGGRTYYADSVKGRFTISRDNAKNTVYLQMNSLNPVDTAVYYCATSRGYANKYYYWGQGSQVTVSS,low polyreactivity
19,QVQLVESGGGLVQAGGILRLSCAASGFIFNRYAMGWSRQSPGKARELVADITGGSTYYADSVKGRFTISRDNAKNTVYLQMNSLKPEDTAVYYCAAYVWRYWHEYDYWGQGTQVTVSS,low polyreactivity
20,QVQLVESGGGLVQAGGILRLSCAASGFIFRLYAKGWYRQAPGKERGLVAAISSGTSTYYADSVKGRFTISRDNAKNTVYLQMNSLIPEDTAVYYCAARISRYPQDDSDYWGQGTQVTVSS,high polyreactivity
21,QVQLVESGGGLVQAGGILRLSCAASGFIFTANDMGWYIQAPGKVRELVAAISSGGRTYYADSVKGRFTISRDNAKNSVYFQKNSLKPEDTAVYYCARDLYVRNGQRARYDSWGQGTQVTVSS,high polyreactivity

row,Sequence,polyreactivity (PSR sort gate)
1,QVQLVESGGGLVQAGGILRLSCAASGFTFGRYAMGRSRQAPGKEREFVAAISYTGTSTYYADSVKGRFTISRDNAKNTVYLQMNSRNPEDTAVYYCNAKWRSHYTQWSYDYWGQCTQVTVSS,high polyreactivity
2,QVQLVESGGGLVQAGGILRLSCAASGFTFSDNAMGWYIQAPGKERELVAAISRSGGRTYYADSVKGRFTISRDNAKNTVYLQMNSLKPEDTAVYYCAAYQYGMDYWGQGSQVTVSS,high polyreactivity
3,QVQLVESGGGLVQAGGILRLSCAASGHIFFYYNMGWYRQAPGKERELVAGITIGGSTNYADSVKGRFTISRDNAKNTVNLQMNSLTPEDTAVYYCAKGGEVSQGYTDEYDYWGLGTQVTVSS,low polyreactivity
4,QVQLVESGGGLVQAGGILRLSCAASGIIFNTNFMGWYRQAPGKERELVAAISRTNYADSVKGRFTISRDNAKNNVFLEMNSLHPEDTSVYDCIVELQYGRPGGQEFDYWGQGSQVTVSS,low polyreactivity
5,QVQLVESGGGLVQAGGILRLSCAASGINFLYYAMGWYREAPGKEMELVAAINGSGGNTYYADSVKGRFTISLDNAKNTVYLQMNRLKPEDTAVYYCNADFFVYSYQQWDEYYDYWGQGTQVTVSS,low polyreactivity
6,QVQLVESGGGLVQAGGILRLSCAASGITFRRSAKGWYRQAPGKERELVAGISYSGGTTYYADSVKGRFTISRDNAKNTVYLQMNSLKAEDTAVYYCAAKRISYTREGYSQYDDWGQGSQVTVSS,high polyreactivity
7,QVQLVESGGGLVQAGGILRLSCAASGLIFSYNTMGWYRHAPGKERELVAGNTSSGSTYYADSVKGRFTISRDNAKNSVYLQMNSLKPEDTAVYYCAAEWDDGRSWYWYYLVGFEYWGQGTQVTVSS,high polyreactivity
8,QVQLVESGGGLVQAGGILRLSCAASGLIFTYYAMGWYRQAPWKERELLAAINYSGGSTYYADSVKGRFTISRDNAKNTVYLQMNSLKPEDTAVYYCNAGYGEHPLSGYEYWGQSTQVTVSS,low polyreactivity
9,QVQLVESGGGLVQAGGILRLSCAASGLSFSWYDMGWYRQAPGKERELVAAITTDGDDTYYADSVKGRFTISRDNAKNTVYLQMNSLKPEDTAVYYCAADSELAIRYPDRDYDSWGQGTQVTVSS,low polyreactivity
10,QVQLVESGGGLVQAGGILRLSCAASGRIFNGYAMGWYRQAPGKERELVAAITSGGRTYADSVKGRFTISRDNAKNTVYLQMYSLKPEDTAVYYCAADAGRILFSGYDYWGQGTQVTVSS,low polyreactivity
11,QVQLVESGGGLVQAGGILRLSCAASGRIFYVNAMGWYRQAPGKERELVAAITWIDGSTYYADSVKGRFTISRDNAKNTVYLQMNSLKPEDTAVYYCAAGGYFYSFYYWGQGTQVTVSS,low polyreactivity
12,QVQLVESGGGLVQAGGILRLSCAASGRIKPRNAMGWYRQAPGKERELVAAISWDGGSTYYADSVKGRFTISRDNAKNTVYLQINSLKPVDTAVYYCNVYVSAGEEDEYWGQGTQVTVSS,low polyreactivity
13,QVQLVESGGGLVQAGGILRLSCAASGRILDYYAMGWYRQAPGKERELVAAISRSGSDTYYADSVKGRFTISRDNAKNTVYLQMNSLKPEETAVYYCAARWSYRSLARYNYWGQGTQVTVSS,low polyreactivity
14,QVQLVESGGGLVQAGGILRLSCAASGRSFDRNAMGWYRQAPGKERELVATISSGDTTDYADSVKGRFTISRDNATNTVYLQMNSLKPEDTAGYYITIYNYWGQGTQVTVSS,low polyreactivity
15,QVQLVESGGGLVQAGGILRLSCAASGRTLDCNAMGWYRQAPGKERELDAAITVTGSSTYYADSVKGRFTISRDNAKNTVYLQMNSLKPEDTAVYYCAKASGGDVRYSYSYRMDYWGQGTQVTVSS,low polyreactivity
16,QVQLVESGGGLVQAGGILRLSCAASGRTVVSYAMGWYRQQPGKGRELVAVITGGTGNTYYADSVKGRFTISRDNEKNTVYLQMNSLKREDTAVYYCNARGCYYKFRYPLYYWGQGTQVTVSS,high polyreactivity
17,QVQLVESGGGLVQAGGILRLSCAASGSIFAHYTMGWYRKAPGKERELVAAISGSGGSTYYADSVKGRFTISRDNAKNTVYLQMNSLKPEVTAVYYCNKRYRPVGPYDYWGQGTQVTVSS,high polyreactivity
18,QVQLVESGGGLVQAGGILRLSCAASGSIFKYYAMGWYRQAPGKERELVADISFGGDSTYYADSVKGRFTISRDNAKNTVYLQMNSLIPEDTAVYYCAAARYFWFVEYDYWGQGTQVTVSS,low polyreactivity
19,QVQLVESGGGLVQAGGILRLSCAASGSIFWYYARGWYRQARGKEREFVADITFSGGSTYYADSVNGRFTISRDNAKNTVYIQMNSLKPEDTAVYYCARDREPLTPVLGNYWGQGTQVTVSS,low polyreactivity
20,QVQLVESGGGLVQAGGILRLSCAASGSIIHFYAKGGYREAPGKEWELVAAITSGTSTYYADSVKGRFTISRDNAKNTVYLQMNSLKPDDTAVYYCAAEASHSYYNAYPSYCGSDYWGQGTQVTVSS,low polyreactivity
